Patent US20120231011A1 (APEXIGEN, published 2012)
Values belong to the binder of their own block, whether it stands above or below them.

Columns and labels:
[1] = target: T1, IgG Fc-hVEGF-A (Human VEGF 165) fusion protein (rabbit; human, UniProt P15692-4 27-191); assay: competitive ELISA: antibody premixed with IgG Fc-hVEGF, plate coated with IgG Fc-VEGFR2 (KDR)
T1 construct: Expressed in HEK 293-6E cells and purified on Protein A; not shown: rabbit IgG Fc

human VEGF [2] = target: T2, human VEGF (human, UniProt P15692-4 27-191, limits assumed); assay: SPR, BIAcore-3000, human VEGF on CM5 chip, experiment 1
T2 construct: The background describes VEGF as a homodimer

[3] = target: T1, IgG Fc-hVEGF-A (Human VEGF 165) fusion …; assay: competitive ELISA: antibody mixed with IgG Fc-hVEGF, added to plate-bound IgG Fc-VEGFR2 (KDR); bound VEGF detected (OD405) [FIG. 1]
human VEGF [4] = target: T2, human VEGF; assay: SPR, BIAcore-3000, human VEGF on CM5 chip; reference AVASTIN
human VEGF [5] = target: T2, human VEGF; assay: SPR, BIAcore-3000, human VEGF on CM5 chip, experiment 2
human VEGF [6] = target: T2, human VEGF; assay: SPR, BIAcore-3000, human VEGF on CM5 chip, average of two experiments
[7] = target: T1, IgG Fc-hVEGF-A (Human VEGF 165) fusion …; assay: direct binding ELISA on plate-bound IgG Fc-hVEGF, detection with donkey anti-human IgG-AP (OD405) [FIG. 4]
human VEGF [8] = target: T2, human VEGF; assay: SPR, BIAcore-3000, human VEGF on CM5 chip

T2 sequence (P15692 other isoform, or with tags, fused parts or gaps limits assumed): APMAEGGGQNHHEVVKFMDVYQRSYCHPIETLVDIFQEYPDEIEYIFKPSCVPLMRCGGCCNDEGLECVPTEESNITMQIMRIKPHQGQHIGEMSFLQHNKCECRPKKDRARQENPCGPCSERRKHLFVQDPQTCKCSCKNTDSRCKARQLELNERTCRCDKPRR
T1 sequence (P15692 other isoform, or with tags, fused parts or gaps limits assumed): as above

B1: EPI0030 antibody (humanized rabbit anti-VEGF monoclonal antibody expressed by the HZD-V6 clone) (antibody, human IgG1, kappa, V domains shown)
VH: EVQLVESGGGLVKPGGSLRLSCAASGFSFSNNDVMCWVRQAPGKGLEWIGCIMTTDVVTEYANWAKSRFTVSRDSAKNSVYLQMNSLRAEDTAVYFCARDSVGSPLMSFDLWGPGTLVTVSS
VL: DIQMTQSPSSLSASVGDRVTINCQASQSIYNNNELSWYQQKPGKPPKLLIYRASTLASGVPSRFSGSGSGTDFTLTISSLQPEDVATYYCGGYKSYSNDGNGFGGGTKVEIKR
IC50 [1]: 0.166 µg/mL
Kd (human VEGF [2]): 0.331 nM
IC50 (read off the curve) [3]: ~0.9 µg/mL
ratio of Kd to that of AVASTIN (human VEGF [4]): 0.01 fold (Kd of EPI0030 / Kd of AVASTIN)
Kd (human VEGF [5]): 0.638 nM
Kd (human VEGF [6]): 0.485 nM
EC50 (read off the curve) [7]: ~10 ng/mL
ratio of Kd to that of AVASTIN (human VEGF [8]): 0.01

B3: recombinant humanized antibody expressed by the HZD-V1 clone (antibody, V domains shown)
VH: QQLVESGGGLVKPGGSLRLSCAASGFSFSNNDVMCWVRQAPGKGLEWIGCIMTTDVVTEYANWAKSRFTVSKDSAKNSVYLQMNSLRAEDTAVYFCARDSVGSPLMSFDLWGPGTLVTVSS
VL: ALQMTQSPSSLSASVGDRVTINCQASQSVYGNNELSWYQQKPGKPPKLLIYRASTLASGVPSRFSGSGSGTDFTLTISSLQPEDVATYYCGGYKSYSNDGNGFGGGTKVEIK
notes: The pairing of VH-HZD1 with VK-HZD1 for clone HZD-V1 is inferred from the names; Variable domains were cloned onto human CH and human CK
IC50 (read off the curve) [3]: ~0.9 µg/mL

Further lines, results first:

IC50 (read off the curve) [3]: ~0.9 µg/mL
B2: recombinant humanized antibody expressed by the HZD-V5 clone (antibody, V domains shown)
VH: EVQLVESGGGLVKPGGSLRLSCAASGFSFSNNDVMCWVRQAPGKGLEWIGCIMTTDVVTEYANWAKSRFTVSKDSAKNSVYLQMNSLRAEDTAVYFCARDSVGSPLMSFDLWGPGTLVTVSS
VL: DIQMTQSPSSLSASVGDRVTINCQASQSVYGNNELSWYQQKPGKPPKLLIYRASTLASGVPSRFSGSGSGTDFTLTISSLQPEDVATYYCGGYKSYSNDGNGFGGGTKVEIK
notes: The pairing of VH-HZD5 with VK-HZD5 for clone HZD-V5 is inferred from the names; Variable domains were cloned onto human CH and human CK

IC50 (read off the curve) [3]: ~0.9 µg/mL
B4: recombinant humanized antibody expressed by the HZD-V2 clone (antibody, V domains shown)
VH: QQLVESGGGLVKPGGSLRLSCAASGFSFSNNDVMCWVRQAPGKGLEWIGCIMTTDVVTEYANWAKSRFTVSRDSAKNSVYLQMNSLRAEDTAVYFCARDSVGSPLMSFDLWGPGTLVTVSS
VL: ALQMTQSPSSLSASVGDRVTINCQASQSIYNNNELSWYQQKPGKPPKLLIYRASTLASGVPSRFSGSGSGTDFTLTISSLQPEDVATYYCGGYKSYSNDGNGFGGGTKVEIK
notes: The pairing of VH-HZD2 with VK-HZD2 for clone HZD-V2 is inferred from the names; Variable domains were cloned onto human CH and human CK
